Source: patent US20110217237A1 (AbbVie / Abbott, published 2011)
Where two headings read alike, the source gives them in different places.

Assays:
[1] = biological target: T1, human DLL4, full length, on cells (human, UniProt Q9NR61 27-685); assay: cell-based or functional assay
[2] = biological target: T2, cynomolgus monkey DLL4 extracellular domain (cynomolgus monkey); assay: binding ELISA
T2 construct: extracellular domain; also called cynoDLL4 ECD; Cyno DLL4
Experimental: (§1) Plates were then washed 3 times. 100 μl/well of recombinant rat/human chimeric or recombinant human anti-DLL4 antibodies were then added to the plate (0.00164-27 nM, 4-fold serial dilution in ELISA buffer=PBST, 10% Superblock (Pierce #37515)) for 1 hour at 25° C. with shaking and then washed again 3 times. Plates were incubated with goat anti-human HRP (Pierce #31412) (1:40,000 dilution in ELISA buffer, 100 μl/well) for 1 hour at 25° C. with shaking, then washed 3 times. After the final wash, plates were incubated with 100 μl/well ELISA substrate (Sigma #T8665). The reaction was stopped after 8 minutes at 25° C. with 100 μl/well 1N HCl and the absorbance was read at 450 nm. Data were analyzed using Graphpad Prism software, and EC50 values were reported.
(§2) Purified variants were further characterized for their affinities for human, murine and cynomolgus DLL4 by binding ELISA (Example 1.2, Method 2), by Biacore (Example 1.1), and by Flow Cytometry (FACS). […] The humanized variants were then tested for their functionality with human and murine DLL4 by competition ELISA (Example 1.3) and by Notch reporter assay (Example 1.6).

[3] = biological target: T3, mouse DLL4 extracellular domain (mouse, UniProt Q9JI71 27-532); assay: binding ELISA
T3 construct: extracellular domain; also called muDLL4 ECD; murine DLL4
T3 sequence (Q9JI71 27-532): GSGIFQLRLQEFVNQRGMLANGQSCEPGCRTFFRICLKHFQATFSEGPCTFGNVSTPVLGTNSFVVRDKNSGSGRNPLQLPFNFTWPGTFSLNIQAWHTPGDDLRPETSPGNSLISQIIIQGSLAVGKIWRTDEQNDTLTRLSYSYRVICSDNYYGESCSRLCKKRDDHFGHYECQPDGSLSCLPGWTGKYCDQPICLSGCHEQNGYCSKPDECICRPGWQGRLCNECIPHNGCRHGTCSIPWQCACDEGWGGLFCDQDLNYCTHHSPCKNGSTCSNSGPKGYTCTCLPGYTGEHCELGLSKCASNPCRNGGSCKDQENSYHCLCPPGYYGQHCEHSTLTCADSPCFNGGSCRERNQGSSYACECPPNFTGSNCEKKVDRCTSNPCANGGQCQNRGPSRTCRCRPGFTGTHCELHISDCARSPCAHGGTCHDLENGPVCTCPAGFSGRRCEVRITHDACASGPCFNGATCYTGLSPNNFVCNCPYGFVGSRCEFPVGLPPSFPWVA
Experimental: as §1, §2

[4] = biological target: T4, human DLL4 extracellular domain (human, UniProt Q9NR61 27-529); assay: binding ELISA
T4 construct: purified recombinant ECD; biotin-labelled or 6xHis-tagged depending on the assay; also called huDLL4 ECD; hu DLL4 ECD
T4 sequence (Q9NR61 27-529 limits assumed): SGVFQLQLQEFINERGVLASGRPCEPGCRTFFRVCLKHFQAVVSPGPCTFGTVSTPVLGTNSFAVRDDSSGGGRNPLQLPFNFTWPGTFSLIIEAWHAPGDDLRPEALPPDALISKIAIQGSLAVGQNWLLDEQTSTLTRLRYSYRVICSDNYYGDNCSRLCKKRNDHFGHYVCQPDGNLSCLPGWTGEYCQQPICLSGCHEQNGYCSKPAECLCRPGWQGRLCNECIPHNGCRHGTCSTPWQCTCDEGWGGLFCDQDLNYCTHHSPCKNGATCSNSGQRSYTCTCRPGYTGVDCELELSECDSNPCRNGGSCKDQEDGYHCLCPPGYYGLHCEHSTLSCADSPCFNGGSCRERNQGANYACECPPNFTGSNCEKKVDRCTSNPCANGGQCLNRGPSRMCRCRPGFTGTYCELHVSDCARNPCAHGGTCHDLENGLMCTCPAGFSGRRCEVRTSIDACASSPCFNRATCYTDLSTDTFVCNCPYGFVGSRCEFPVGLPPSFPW
Experimental: as §1, §2

[5] = biological target: T1, human DLL4, full length, on cells; assay: FACS, DLL4 cells
mouse DLL4 on cells [6] = biological target: T5, mouse DLL4 on cells (mouse, UniProt Q9JI71 27-686); assay: FACS, DLL4 cells
T5 construct: whole, on cells; also called mouse DLL4-293G; mu DLL4 cells
T5 sequence (Q9JI71 27-686): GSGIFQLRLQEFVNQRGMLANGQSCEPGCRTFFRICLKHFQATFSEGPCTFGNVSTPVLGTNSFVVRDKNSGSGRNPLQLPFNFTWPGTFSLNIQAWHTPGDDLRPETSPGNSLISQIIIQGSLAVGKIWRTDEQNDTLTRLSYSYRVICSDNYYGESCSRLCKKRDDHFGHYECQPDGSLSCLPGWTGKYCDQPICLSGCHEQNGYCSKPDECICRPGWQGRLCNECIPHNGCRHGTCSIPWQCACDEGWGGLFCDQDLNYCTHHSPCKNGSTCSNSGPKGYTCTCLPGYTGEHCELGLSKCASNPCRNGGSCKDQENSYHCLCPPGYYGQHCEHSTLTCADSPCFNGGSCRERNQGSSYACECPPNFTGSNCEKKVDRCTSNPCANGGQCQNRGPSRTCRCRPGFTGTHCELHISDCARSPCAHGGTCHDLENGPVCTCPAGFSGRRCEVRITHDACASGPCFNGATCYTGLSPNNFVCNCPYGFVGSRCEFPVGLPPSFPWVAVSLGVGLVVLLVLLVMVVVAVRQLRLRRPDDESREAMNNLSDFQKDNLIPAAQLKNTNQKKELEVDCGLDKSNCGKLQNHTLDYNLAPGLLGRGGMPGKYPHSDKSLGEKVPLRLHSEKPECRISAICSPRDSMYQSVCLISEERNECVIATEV

[7] = biological target: T3, mouse DLL4 extracellular domain; assay: SPR (Biacore)
Experimental: (§3) The BIACORE® surface plasmon resonance assay (Biacore, Inc., Piscataway, N.J., US) determines the affinity of antibodies with kinetic measurements of on-rate and off-rate constants. Binding of DLL4 antibodies to a purified recombinant DLL4 extracellular domain (ECD) was determined by surface plasmon resonance-based measurements with a Biacore® instrument (either a Biacore 2000, Biacore 3000, or Biacore T100; GE Healthcare, Piscataway, N.J., US) using running buffer HBS-EPB (10 mM HEPES [pH 7.4], 150 mM NaCl, 3 mM EDTA, 0.1 mg/ml BSA and 0.005% surfactant P20) at 25° C. For example, approximately 9000 RU of goat anti-human Fc specific polyclonal antibody (Thermo Fisher Scientific Inc., Rockford, Ill., US) diluted in 10 mM sodium acetate (pH 4.5) is directly immobilized across a CMS research grade biosensor chip using a standard amine coupling kit according to manufacturer's instructions and procedures at 25 μg/ml. Unreacted moieties on the biosensor surface were blocked with ethanolamine. For kinetic analysis, rate equations derived from the 1:1 Langmuir binding model were fitted simultaneously to multiple antigen injections (using global fit analysis) with the use of Scrubber 2 (BioLogic Software), Biacore Biaevaluation 4.0.1 software or Biacore T100 Evaluation software. Purified antibodies were diluted in running buffer for capture across goat anti-human Fc reaction surfaces. Antibodies to be captured as a ligand (1 μg/ml) were injected over reaction matrices at a flow rate of 10 μl/min. During the assay, all measurements were referenced against the capture surface alone (i.e., with no captured anti-DLL4 antibody). […] The equilibrium dissociation constant KD (M) of the reaction between antibodies and the target antigen was then calculated from the kinetic rate constants by the following formula: KD=Koff/Kₒₙ. Binding was recorded as a function of time and kinetic rate constants were calculated.

[8] = biological target: T4, human DLL4 extracellular domain; assay: SPR (Biacore)
Experimental: as §3

[9] = biological target: T3, mouse DLL4 extracellular domain; assay: competition ELISA vs Notch-1
Experimental: (§4) Plates were then washed 3 times with wash buffer (PBS, 0.05% Tween-20) and blocked with 200 μl/well blocking buffer (D-PBS, 1% BSA, 1 mM CaCl₂, 0.05% Tween-20) for 1 hour at 25° C. While blocking, biotin labeled DLL4 extracellular domain (14 nM) was mixed with antibody (30 pM-66 nM, 3-fold serial dilution in blocking buffer) for 1 hour at 25° C. with shaking. Assay plates were washed after blocking, and incubated with DLL4/antibody mixtures (100 μl/well, 1 hour at 25° C. with shaking). Plates were washed again and 100 μl/well streptavidin conjugated with HRP (Fitzgerald #65R-S104PHRPx, diluted 1:5,000 in blocking buffer) was added for 1 hour at 25° C. with shaking. After a final wash, plates were developed using 100 μl/well substrate (TMB Sigma #T8665), and the reaction was stopped using 100 μl/well 1N HCl, and the absorbance was read at 450 nm. Data were analyzed using Graphpad Prism software and IC₅₀ values were reported as the concentration of antibody to achieve 50% reduction of DLL4 bound to Notch1.
as §2

[10] = biological target: T4, human DLL4 extracellular domain; assay: competition ELISA vs Notch-1
Experimental: as §4, §2

[11] = biological target: T2, cynomolgus monkey DLL4 extracellular …; assay: SPR (Biacore)
Experimental: as §3

[12] = biological target: T4, human DLL4 extracellular domain; assay: SPR (Biacore); remark: listed apart in the source
Experimental: as §3

[13] = biological target: T1, human DLL4, full length, on cells; assay: FACS, direct binding to DLL4 cells
Experimental: (§5) Stable cell lines overexpressing cell-surface DLL4 were harvested from tissue culture flasks, washed four times and resuspended in phosphate buffered saline (PBS) containing 1% bovine serum albumin and 1 mM CaCl₂ (FACS buffer). 1.5×10⁵ cells were incubated with antibodies at various concentrations in FACS buffer for 60 minutes on ice. […] Following an incubation on ice (4° C., 60 minutes), cells were washed three times and resuspended in FACS buffer. Fluorescence was measured using a Becton Dickinson FACSCalibur-HTS (Becton Dickinson, San Jose, Calif., US). Data were analyzed using Graphpad Prism software and EC₅₀ values were reported as the concentration of antibody to achieve 50% of maximal DLL4 antibodies binding to DLL4 expressing cells.
(§6) The hu1A11.1 affinity matured clones (Table 22) were expressed, purified, and further characterized in vitro. Their activities of binding to cell-bound DLL4 and inhibiting cell-bound DLL4-induced Notch activation were further examined using methods described in Examples 1.3 and 1.6, and are summarized in Table 26 (below).

mouse DLL4 on cells [14] = biological target: T5, mouse DLL4 on cells; assay: FACS, direct binding to DLL4 cells
Experimental: as §5, §6

[15] = biological target: T3, mouse DLL4 extracellular domain; assay: SPR (Biacore); remark: listed apart in the source
Experimental: as §3

[16] = biological target: T6, rat DLL4 extracellular domain (rat, UniProt D3ZHH1 28-530); assay: SPR (Biacore)
T6 construct: extracellular domain; also called ratDLL4 ECD
T6 sequence (D3ZHH1 28-530): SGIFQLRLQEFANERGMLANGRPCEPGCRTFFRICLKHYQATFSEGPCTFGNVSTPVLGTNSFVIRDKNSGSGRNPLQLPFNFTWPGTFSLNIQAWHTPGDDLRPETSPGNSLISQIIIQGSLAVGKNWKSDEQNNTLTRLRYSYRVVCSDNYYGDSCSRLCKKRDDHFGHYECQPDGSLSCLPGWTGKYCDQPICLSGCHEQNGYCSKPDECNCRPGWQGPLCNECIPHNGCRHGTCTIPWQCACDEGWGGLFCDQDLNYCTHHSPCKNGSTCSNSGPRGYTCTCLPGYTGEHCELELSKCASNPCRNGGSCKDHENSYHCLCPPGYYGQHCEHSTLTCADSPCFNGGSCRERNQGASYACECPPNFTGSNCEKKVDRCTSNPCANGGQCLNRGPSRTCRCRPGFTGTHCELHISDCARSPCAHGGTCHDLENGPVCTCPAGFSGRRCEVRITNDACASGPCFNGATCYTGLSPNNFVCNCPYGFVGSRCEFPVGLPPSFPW
Experimental: as §3

[17] = biological target: T1, human DLL4, full length, on cells; assay: cell-based or functional assay; remark: listed apart in the source
mouse DLL4 on cells [18] = biological target: T5, mouse DLL4 on cells; assay: cell-based or functional assay

T1 sequence (Q9NR61 27-685 limits assumed): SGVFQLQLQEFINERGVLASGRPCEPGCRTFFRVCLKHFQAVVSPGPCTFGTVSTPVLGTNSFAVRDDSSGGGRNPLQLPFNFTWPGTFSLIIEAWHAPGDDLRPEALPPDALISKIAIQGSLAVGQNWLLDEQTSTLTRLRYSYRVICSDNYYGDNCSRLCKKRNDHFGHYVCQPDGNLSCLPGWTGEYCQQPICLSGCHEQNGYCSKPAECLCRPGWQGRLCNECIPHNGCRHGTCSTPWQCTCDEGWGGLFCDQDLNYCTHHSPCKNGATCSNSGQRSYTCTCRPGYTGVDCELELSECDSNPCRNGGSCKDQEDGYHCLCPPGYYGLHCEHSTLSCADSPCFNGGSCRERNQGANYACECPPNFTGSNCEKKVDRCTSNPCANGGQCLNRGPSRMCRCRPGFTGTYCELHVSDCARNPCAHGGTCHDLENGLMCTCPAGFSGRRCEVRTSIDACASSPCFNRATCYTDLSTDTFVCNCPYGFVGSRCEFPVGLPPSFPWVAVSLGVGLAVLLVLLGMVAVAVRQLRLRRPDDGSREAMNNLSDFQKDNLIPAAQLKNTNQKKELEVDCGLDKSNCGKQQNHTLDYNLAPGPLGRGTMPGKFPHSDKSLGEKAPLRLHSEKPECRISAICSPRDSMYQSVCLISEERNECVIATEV

Reporter Assay (EC50, nM) [1] [nM]	EC50 [2] [nM]	EC50 [3] [nM]	EC50 [4] [nM]	Kd [11] [nM]	koff [11] [s⁻¹]	kon [11] [M⁻¹ s⁻¹]	Kd [12] [nM]	koff [12] [s⁻¹]	kon [12] [M⁻¹ s⁻¹]	EC50 [13] [nM]	EC50 (mouse DLL4 on cells [14]) [nM]	Kd [15] [nM]	koff [15] [s⁻¹]	kon [15] [M⁻¹ s⁻¹]	Kd [16] [nM]	koff [16] [s⁻¹]	kon [16] [M⁻¹ s⁻¹]	Inhibition of Notch Activation via DLL4 cells, Notch reporter assay [17] [nM]	Inhibition of Notch Activation via DLL4 cells, Notch reporter assay (mouse DLL4 on cells [18]) [nM]	Binder	further results
–	–	–	–	0.2	3.35e-05	170000	0.15	2.66e-05	183000	2.48	0.5	0.18	3.54e-05	198000	8.8	0.00102	116000	0.904	1.18	h1A11.A11 (antibody, V domains shown, also called h1A11.A11 VH / h1A11VL.1) VH: EVQLVESGGGLVQPGGSLRLSCAASGFTFRHFPMAWVRQAPGKGLEWVATISSSDDWPNYRDSVKGRFTISRDNAKSSLYLQMNSLRAEDTAVYYCSRGYYNSPFAYWGQGTLVTVSS VL: DIQMTQSPSSLSASVGDRVTITCRASEDIYSNLAWYQQKPGKAPKLLIYDTNNLADGVPSRFSGSGSGTDFTLTISSLQPEDFATYYCQQYNNYPPTFGQGTKLEIK	–
–	–	–	–	0.28	3.84e-05	137000	0.22	3.26e-05	149000	0.996	1.61	0.35	5.44e-05	156000	1.6	0.000175	108000	0.208	0.266	h1A11.E12 (antibody, V domains shown, also called h1A11.E12 VH / h1A11.E12 VL) VH: EVQLVESGGGLVQPGGSLRLSCAASGFTFRYFPMAWVRQAPGKGLEWVATISGSDEWPNYRDSVKGRFTISRDNAKNSLYLQMNSLRAEDTAVYYCARGYYNSPFAFWGQGTLVTVSS VL: DIQMTQSPSSLSASVGDRVTITCRASQEIYRNLAWYQQKPGKSPKLLIFDTSVLADGVPSRFSGSGSGTDSTLTISSLQPEDFATYYCQQYTYYPPTFGQGTKLEIK	–
–	–	–	–	0.35	4.6e-05	131000	0.27	3.85e-05	143000	1.98	0.42	0.33	5.07e-05	154000	16	0.00283	178000	0.856	0.586	h1A11.H2 (antibody, V domains shown, also called h1A11.H2 VH / h1A11.E12 VL) VH: EVQLVESGGGLVQPGGSLRLSCAASGFTFGNFPMSWVRQAPGKGLEWVASISSSDSWATIGDSVKGRFTISRDNAKNSLYLQMNSLRAEDTAVYYCARGYYNSPFAFWGQGTLVTVSS VL: DIQMTQSPSSLSASVGDRVTITCRASQEIYRNLAWYQQKPGKSPKLLIFDTSVLADGVPSRFSGSGSGTDSTLTISSLQPEDFATYYCQQYTYYPPTFGQGTKLEIK	–

More lines, now with the values behind:

Binder	Reporter Assay (EC50, nM) [1] [nM]	EC50 [2] [nM]	EC50 [3] [nM]	EC50 [4] [nM]	Kd [11] [nM]	koff [11] [s⁻¹]	kon [11] [M⁻¹ s⁻¹]	Kd [12] [nM]	koff [12] [s⁻¹]	kon [12] [M⁻¹ s⁻¹]	EC50 [13] [nM]	EC50 (mouse DLL4 on cells [14]) [nM]	Kd [15] [nM]	koff [15] [s⁻¹]	kon [15] [M⁻¹ s⁻¹]	Kd [16] [nM]	koff [16] [s⁻¹]	kon [16] [M⁻¹ s⁻¹]	Inhibition of Notch Activation via DLL4 cells, Notch reporter assay [17] [nM]	Inhibition of Notch Activation via DLL4 cells, Notch reporter assay (mouse DLL4 on cells [18]) [nM]	further results
h1A11.2 (antibody, V domains shown, humanized IgG; also called VH.1/VL.1a 1A11) VH: EVQLVESGGGLVQPGGSLRLSCAASGFTFSNFPMAWVRQAPGKGLEWVATISSSDGTTYYRDSVKGRFTISRDNAKNSLYLQMNSLRAEDTAVYYCARGYYNSPFAYWGQGTLVTVSS VL: DIQMTQSPSSLSASVGDRVTITCRASEDIYSNLAWYQQKPGKSPKLLIFDTNNLADGVPSRFSGSGSGTDSTLTISSLQPEDFATYFCQQYNNYPPTFGQGTKLEIKR	3.92	0.13	0.09	0.08	–	–	–	–	–	–	–	–	–	–	–	–	–	–	–	–	EC50 [5]: 2.85 nM; EC50 (mouse DLL4 on cells [6]): 0.21 nM; Kd [7]: 19 nM; Kd [8]: 10 nM; IC50 [9]: 0.9 nM; IC50 [10]: 0.3 nM
h1A11.A8 (antibody, V domains shown, also called h1A11.A8 VH / h1A11VL.1) VH: EVQLVESGGGLVQPGGSLRLSCAASGFTFGNFPMSWVRQAPGKGLEWVASISSSDSWATIGDSVKGRFTISRDNAKNSLYLQMNSLRAEDTAVYYCSRGYYNSPFAYWGQGTLVTVSS VL: DIQMTQSPSSLSASVGDRVTITCRASEDIYSNLAWYQQKPGKAPKLLIYDTNNLADGVPSRFSGSGSGTDFTLTISSLQPEDFATYYCQQYNNYPPTFGQGTKLEIK	–	–	–	–	0.15	2.4e-05	160000	0.062	1.08e-05	174000	3.16	0.744	0.18	3.27e-05	187000	47	0.0065	139000	1.33	1.25	–
h1A11.5 (antibody, V domains shown, humanized IgG; also called VH.1a/VL.1 1A11) VH: EVQLVESGGGLVQPGGSLRLSCAASGFTFSNFPMAWVRQAPGKGLEWVATISSSDGTTYYRDSVKGRFTISRDNAKSSLYLQMNSLRAEDTAVYYCSRGYYNSPFAYWGQGTLVTVSS VL: DIQMTQSPSSLSASVGDRVTITCRASEDIYSNLAWYQQKPGKAPKLLIYDTNNLADGVPSRFSGSGSGTDFTLTISSLQPEDFATYYCQQYNNYPPTFGQGTKLEIKR	3.8	0.16	0.08	0.07	–	–	–	–	–	–	–	–	–	–	–	–	–	–	–	–	EC50 [5]: 3.61 nM; EC50 (mouse DLL4 on cells [6]): 0.21 nM; Kd [7]: 22 nM; Kd [8]: 9.6 nM; IC50 [9]: 0.8 nM; IC50 [10]: 0.3 nM
